This is an account of results in patent US20150353951A1, “SYNTHETIC GLYPHOSATE-RESISTANT GENE AND USE THEREOF” (priority 2012, published 2015).

One data set deals with G2-aroA protein. The data set can be described thus: Double-antibody sandwich ELISA detection of G2-aroA protein expression in transgenic maize leaves. The data set is classed as in vivo. The following applies: for G2-aroA protein concentration: T6 generation transgenic maize, five-leaf stage, leaf fresh weight, single plants 1-4; for expression amount of G2-aroA protein in per gram (fresh weight) of leaf plate: transgenic maize. How it is done:
The sample extracting solution: 25 mM of Tris-Cl (pH8.0), 10 mM of KCl, 20 mM of MgCl2.6H2O, 1 mM of DTT, 1 mM of PMSF (added before using).
Taking T6 generation transgenic maize plants (including plants transformed with the mG2-aroA gene and plants transformed with G2-aroA gene) at the same growth state (five-leaf stage), and taking about 1 g (fresh weight) of each function leaf (top-three leaves) plates, then grinding in liquid nitrogen. Transferring into 10 ml of centrifugal tube, into which 3 ml of sample extracting solution was added, and shaking strongly. Then centrifugalizing for 1 h at 4° C. The supernatant was taken as a sample to be detected and stand by service. Since the transformed genes are different, there are two samples to be detected, that is, a sample derived from mG2-aroA transgenic plants (sample to be detected is mG2-aroA) and a sample derived from G2-aroA transgenic plants (sample to be detected is G2-aroA). At the same time, the T6 generation maize plants transformed with pS3300-UG0 blank vector and the non-transgenic maize plants were used as controls.
The weight weighting when the leaf plates were ground in liquid nitrogen into powder samples and added into centrifugal tube containing the extracting solution subtracts that weighting before adding sample into centrifugal tube containing the extracting solution to obtain the fresh weight described above.
(1) Coating: the primary antibody (rabbit antibody) with concentration of 1.5 mg/ml (preparation method, see last part of this specification) against G2-aroA protein was diluted in coating buffer. And then after dilution added into ELIAS plate with a volume ratio of 1:1000 between polyclonal antibody against G2-aroA protein and coating buffer, 100 μL per well, and coating overnight in wet box at 4° C. […]
In another aspect, the sample to be detected prepared in step 1 was diluted with sample buffer in a ratio of 1:5, and then 100 μL of diluted sample was added to each well. […]
(9) Measurement: the OD value was measured at 405 nm.
(10) Plotting the standard curve: the standard solution concentration of G2-aroA protein of various of concentration (ng/mL) was plotted on X axis, and the OD value of G2-aroA protein standard measured in step (9) was plotted on Y axis, then the standard curve was plotted by EXCEL.
(11) The OD value of sample to be detected measured in step (9) was used in standard curve equation obtained in step (10) to calculate the content of G2-aroA protein in sample to be detected.
The content of G2-aroA protein in fresh weight=the content of G2-aroA protein of sample to be detected×the volume of sample to be detected/fresh weight of the sample, unit: μg/g. […]

Data set [1] has as its system T6 generation transgenic maize plants. The data set can be described thus: Detection of herbicide (Roundup/glyphosate) resistance of transgenic maize plants in field. The data set is classed as in vivo. The settings on record: for phytotoxicity after Roundup treatment: 800 ml/mu Roundup (41% glyphosate) at 5-6 leaf age; for phytotoxicity response at late stage of plants growth: 800 ml/mu Roundup at 5-6 leaf age. How it is done: 1. the experimental materials: T6 generation transgenic maize plants, including plants transformed with mG2-aroA gene, plants transformed with G2-aroA gene, and plants transformed with pS3300-UG0 blank vector. At the same time, the non-transgenic maize plants were used as a control.
2. experiment design: 5M of row length, 3 row plots, 3 times of repeat, density: 60×35 cm
3. experiment treatment: applying Roundup (containing 41% of glyphosate, recommbinated applying amount in field is 150-250 ml/mu) in an amount of 800 ml/mu.
4. the experiment treatment timing: 5-6 leaf age. The experimental result was observed 7 days later.

Several values for one entry are separate records, joined by “and”; a condition that tells them apart may be missing. Equal values may be shown once. Entries after “also recorded” stand apart in the source; their conditions may differ.

B1: G2-aroA: initial prokaryote glyphosate-resistant gene, SEQ ID NO. 1; tested as T6 transgenic maize (nucleic acid)
DNA: ATGGCGTGTTTGCCTGATGATTCGGGTCCGCATGTCGGCCACTCCACGCCACCTCGCCTTGACCAGGAGCCTTGTACCTTGAGTTCGCAGAAAACCGTGACCGTTACACCGCCCAACTTCCCCCTCACTGGCAAGGTCGCGCCCCCCGGCTCCAAATCCATTACCAACCGTGCGCTGTTGCTGGCGGCATTGGCCAAGGGCACCAGCCGTTTGAGCGGTGCGCTCAAAAGCGATGACACGCGCCACATGTCGGTCGCCCTGCGGCAGATGGGCGTCACCATCGACGAGCCGGACGACACCACCTTTGTGGTCACCAGCCAAGGCTCGCTGCAATTGCCGGCCCAGCCGTTGTTCCTCGGCAACGCTGGCACCGCCATGCGCTTTCTCACGGCTGCCGTGGCCACCGTGCAAGGCACCGTGGTACTGGACGGCGACGAGTACATGCAAAAACGCCCGATTGGCCCGCTGCTGGCTACCCTGGGCCAGAACGGCATCCAGGTCGACAGCCCCACCGGTTGCCCACCGGTCACCGTGCACGGCATGGGCAAGGTCCAGGCCAAGCGTTTCGAGATTGATGGTGGTTTGTCCAGCCAGTACGTATCGGCCCTGCTGATGCTCGCGGCGTGCGGCGAAGCGCCGATTGAAGTGGCGCTGACCGGCAAGGATATCGGTGCCCGTGGCTACGTGGACCTGACCCTCGACTGCATGCGTGCCTTCGGGGCCCAGGTGGACGCCGTGGACGACACCACCTGGCGCGTCGCCCCCACCGGCTATACCGCCCATGATTACCTGATCGAACCCGATGCGTCCGCCGCCACGTATTTGTGGGCCGCAGAAGTGCTGACCGGTGGGCGTATCGACATCGGCGTAGCCGCGCAGGACTTCACCCAGCCCGACGCCAAGGCCCAGGCCGTGATTGCGCAGTTCCCGAACATGCAAGCCACGGTGGTAGGCTCGCAAATGCAGGATGCGATCCCGACCCTGGCGGTGCTCGCCGCGTTCAACAACACCCCGGTGCGTTTCACTGAACTGGCGAACCTGCGCGTCAAGGAATGTGACCGCGTGCAGGCGCTGCACGATGGCCTCAACGAAATTCGCCCGGGCCTGGCGACCATCGAGGGCGATGACCTGCTGGTCGCCAGCGACCCGGCCCTGGCAGGCACCGCCTGCACCGCACTGATCGACACCCACGCCGACCATCGCATCGCCATGTGCTTTGCCCTGGCCGGGCTTAAAGTCTCGGGCATTCGCATTCAAGACCCGGACTGCGTGGCCAAGACCTACCCTGACTACTGGAAAGCCCTGGCCAGCCTGGGCGTTCACCTAAACGACTGA
Take B1: in the data set with G2-aroA protein, the G2-aroA protein concentration was 10.671 µg/g and 20.227 µg/g and 14.237 µg/g and 15.096 µg/g; the “expression amount of G2-aroA protein in per gram (fresh weight) of leaf plate” value is 3.735 µg. In addition, in data set [1], the “phytotoxicity after Roundup treatment” value is “very serious phytotoxicity, and all plants showed yellowing, abnormalities; also recorded: phytotoxicity was very serious, plants all show yellowing, abnormalities”; the “phytotoxicity response at late stage of plants growth” value was “most of plants showed that the tassels did not differentiate, and ears did not silk or plants were short”.

B2: mG2-aroA: codons optimized glyphosate-resistant gene, SEQ ID NO. 2, encoding G2-aroA protein; tested as T6 transgenic maize (nucleic acid)
DNA: ATGGCGTGCCTCCCTGACGATTCTGGTCCGCATGTCGGACACTCCACTCCACCTCGCCTGGACCAGGAGCCCTGTACCTTGTCGTCCCAGAAGACGGTTACGGTGACGCCACCCAACTTCCCGTTGACTGGGAAGGTCGCTCCACCTGGCTCCAAGTCTATCACCAACCGTGCACTGTTGCTGGCTGCGTTGGCCAAAGGGACCAGTCGGTTGAGCGGTGCGCTCAAGTCGGATGACACTCGCCACATGTCGGTGGCTCTGAGGCAGATGGGTGTCACGATCGACGAACCGGATGACACGACCTTCGTGGTCACGAGCCAAGGCAGCCTCCAGCTGCCAGCCCAACCGTTGTTCCTCGGCAATGCTGGCACCGCTATGCGCTTCCTCACGGCTGCGGTGGCCACCGTCCAAGGCACGGTCGTTCTGGATGGCGATGAGTACATGCAGAAGCGTCCCATCGGACCCTTGCTGGCGACGCTTGGACAGAACGGCATCCAAGTGGATTCTCCCACCGGTTGCCCACCCGTCACCGTGCACGGCATGGGCAAGGTCCAAGCGAAGCGGTTCGAGATCGACGGTGGGCTCTCCTCCCAGTACGTCTCAGCCCTGCTCATGCTCGCTGCGTGTGGCGAGGCACCGATCGAGGTTGCGCTCACAGGCAAGGACATCGGTGCCAGAGGGTACGTGGACCTGACCCTCGACTGCATGAGAGCCTTTGGAGCACAGGTTGACGCAGTGGACGACACGACCTGGAGGGTCGCTCCCACAGGGTACACCGCTCATGACTATCTCATCGAACCCGACGCCAGCGCTGCGACGTACTTGTGGGCAGCCGAGGTCCTGACCGGTGGCAGGATTGATATTGGCGTTGCTGCGCAGGACTTCACCCAACCGGACGCCAAGGCTCAAGCCGTGATTGCGCAGTTCCCTAACATGCAAGCCACCGTGGTTGGCTCCCAGATGCAGGACGCGATCCCGACCCTGGCTGTCCTCGCAGCCTTCAACAATACTCCCGTGCGCTTCACTGAGCTTGCCAACCTTAGGGTCAAGGAGTGCGATCGCGTGCAAGCCCTGCACGATGGGCTCAACGAGATCAGGCCAGGCCTCGCCACCATCGAGGGAGACGACCTGCTCGTGGCCAGCGACCCAGCGCTTGCAGGGACAGCCTGCACAGCCCTGATCGACACCCACGCTGACCATCGCATCGCGATGTGCTTTGCCCTGGCTGGCCTTAAGGTCTCAGGCATTCGCATTCAGGACCCTGACTGCGTGGCCAAGACCTACCCTGACTACTGGAAGGCTCTTGCCAGCCTTGGCGTTCACCTCAACGACTGATGA
As for B2, in the data set with G2-aroA protein, the G2-aroA protein concentration was 3.304 µg/g and 2.977 µg/g and 4.321 µg/g and 4.339 µg/g; the “expression amount of G2-aroA protein in per gram (fresh weight) of leaf plate” value is listed as “up to 15.057 μg”. Besides, in data set [1], the “phytotoxicity after Roundup treatment” value is “phytotoxicity was not obvious, they grew normally” and the “phytotoxicity response at late stage of plants growth” value is given as “no phytotoxicity response”.
